Source: PMC2132775 (The Journal of Cell Biology, 1998)
Like-named read-outs stand apart in the source and are kept apart here.

Assays:
[1] = target: FLA10, the 90-kD subunit of FLA10 kinesin-II (fla10 gene product) (Chlamydomonas reinhardtii (endogenous in flagella)) (UniProt P46869); test: SEC + other: sucrose density gradient centrifugation
[2] = target: FLA10, the 90-kD subunit of FLA10 kinesin-II (fla10 gene product) (Chlamydomonas reinhardtii (endogenous in flagella)) (UniProt P46869); test: as above; remark: listed apart in the source
[3] = target: T1, p172, IFT particle polypeptide of complex B (Chlamydomonas reinhardtii (endogenous in flagella)), Q5DM57; test: sucrose density gradient centrifugation; details: remark: other sources report otherwise
T1 chain: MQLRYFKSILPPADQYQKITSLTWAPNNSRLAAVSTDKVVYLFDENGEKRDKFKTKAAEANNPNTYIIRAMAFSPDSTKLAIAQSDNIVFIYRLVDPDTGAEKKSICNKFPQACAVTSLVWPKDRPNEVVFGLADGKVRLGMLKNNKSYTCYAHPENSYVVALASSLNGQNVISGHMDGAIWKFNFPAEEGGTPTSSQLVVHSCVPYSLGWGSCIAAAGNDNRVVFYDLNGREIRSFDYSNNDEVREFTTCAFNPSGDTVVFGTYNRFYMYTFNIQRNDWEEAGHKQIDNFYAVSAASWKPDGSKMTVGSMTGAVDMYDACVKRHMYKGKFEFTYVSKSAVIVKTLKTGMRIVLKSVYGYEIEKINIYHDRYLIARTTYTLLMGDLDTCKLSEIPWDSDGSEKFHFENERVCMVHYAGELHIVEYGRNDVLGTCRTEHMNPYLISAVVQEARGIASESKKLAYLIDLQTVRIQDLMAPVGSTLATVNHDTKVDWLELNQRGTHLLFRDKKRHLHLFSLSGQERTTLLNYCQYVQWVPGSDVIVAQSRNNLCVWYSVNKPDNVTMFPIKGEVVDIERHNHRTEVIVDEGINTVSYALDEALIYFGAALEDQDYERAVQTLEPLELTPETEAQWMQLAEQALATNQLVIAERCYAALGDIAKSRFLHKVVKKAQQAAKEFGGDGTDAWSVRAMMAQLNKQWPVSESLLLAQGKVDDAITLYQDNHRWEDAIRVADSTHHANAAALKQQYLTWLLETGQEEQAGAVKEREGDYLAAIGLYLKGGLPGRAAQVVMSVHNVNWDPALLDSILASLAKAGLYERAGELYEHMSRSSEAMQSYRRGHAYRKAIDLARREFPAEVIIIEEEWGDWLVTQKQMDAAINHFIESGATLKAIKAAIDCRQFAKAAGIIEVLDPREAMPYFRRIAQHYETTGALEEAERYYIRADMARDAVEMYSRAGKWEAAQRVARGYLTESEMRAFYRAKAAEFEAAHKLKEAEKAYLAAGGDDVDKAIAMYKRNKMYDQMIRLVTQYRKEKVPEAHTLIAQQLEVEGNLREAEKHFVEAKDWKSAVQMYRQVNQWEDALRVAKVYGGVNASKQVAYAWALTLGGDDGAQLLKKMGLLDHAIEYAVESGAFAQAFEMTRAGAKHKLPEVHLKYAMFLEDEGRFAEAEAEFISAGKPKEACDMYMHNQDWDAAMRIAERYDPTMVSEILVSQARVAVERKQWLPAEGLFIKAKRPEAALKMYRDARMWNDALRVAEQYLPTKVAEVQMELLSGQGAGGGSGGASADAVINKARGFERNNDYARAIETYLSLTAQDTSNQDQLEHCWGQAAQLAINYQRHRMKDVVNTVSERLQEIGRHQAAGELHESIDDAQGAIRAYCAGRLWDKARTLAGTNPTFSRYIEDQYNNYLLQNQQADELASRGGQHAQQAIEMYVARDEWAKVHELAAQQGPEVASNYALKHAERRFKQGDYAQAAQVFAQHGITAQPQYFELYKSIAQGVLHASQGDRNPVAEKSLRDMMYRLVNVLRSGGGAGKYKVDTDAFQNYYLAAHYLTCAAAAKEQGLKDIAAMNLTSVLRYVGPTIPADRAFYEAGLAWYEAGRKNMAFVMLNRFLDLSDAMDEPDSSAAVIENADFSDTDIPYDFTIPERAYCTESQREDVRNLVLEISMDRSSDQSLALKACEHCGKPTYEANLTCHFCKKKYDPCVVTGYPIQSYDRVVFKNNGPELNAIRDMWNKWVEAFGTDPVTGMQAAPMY

[4] = target: T2, FLA10, the 90-kD subunit of FLA10 kinesin-II (fla10 gene product) (Chlamydomonas reinhardtii (endogenous …, UniProt P46869 1-786)); test: SEC + other: sucrose density gradient centrifugation
T2 sequence (looked up): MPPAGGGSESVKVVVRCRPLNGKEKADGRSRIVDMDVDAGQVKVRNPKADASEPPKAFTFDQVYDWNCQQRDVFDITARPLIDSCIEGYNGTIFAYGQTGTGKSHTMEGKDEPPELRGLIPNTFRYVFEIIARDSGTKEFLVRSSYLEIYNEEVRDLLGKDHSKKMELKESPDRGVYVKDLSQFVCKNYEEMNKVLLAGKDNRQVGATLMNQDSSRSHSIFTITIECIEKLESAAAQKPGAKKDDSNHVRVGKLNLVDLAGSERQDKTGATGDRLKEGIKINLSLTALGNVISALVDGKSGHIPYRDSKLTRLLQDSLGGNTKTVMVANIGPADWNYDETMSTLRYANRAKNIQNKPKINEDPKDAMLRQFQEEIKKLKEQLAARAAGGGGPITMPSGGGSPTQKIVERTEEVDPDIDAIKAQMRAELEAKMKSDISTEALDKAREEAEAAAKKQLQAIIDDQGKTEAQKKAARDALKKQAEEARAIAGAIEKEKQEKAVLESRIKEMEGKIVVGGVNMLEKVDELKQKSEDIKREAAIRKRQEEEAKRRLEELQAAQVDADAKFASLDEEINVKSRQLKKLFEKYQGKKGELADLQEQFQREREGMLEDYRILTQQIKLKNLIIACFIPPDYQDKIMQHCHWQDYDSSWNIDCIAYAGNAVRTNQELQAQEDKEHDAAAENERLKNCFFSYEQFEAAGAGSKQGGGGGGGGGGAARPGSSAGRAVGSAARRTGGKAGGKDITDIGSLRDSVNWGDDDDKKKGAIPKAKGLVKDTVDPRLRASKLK

“100-kD nonmotor subunit of FLA10 kinesin-II (natural protein)” was tested, and the stoichiometry N [1] was 1 and the stoichiometry N [2] was 0.8.

B1: p81, IFT particle polypeptide of complex B, Q68RJ5 1-683 (natural protein)
chain: MGDVSYIVDSLGLPPFSYQMSLLSFTEKGPQELLQLLSDVFSTISPKHQKVDVAKEVPDQTADRLIGFLKIIKYRPNVQDPLLFRQLVAAGDRETLYQILRWVVPQAQLLEKRAFVGYYLSFPDMPEEFNFDPDIMELKEEIKAMQQEFIELHKSSDAIKTLSKDTQALKNKIKSLEEEKERLGEKVERAKGAVDKLPDRSSYMEVCTNLRKQQDEEVNLSTAIQTQRALQEKAEASYHRAAARLRELQTSYQEGSAGKLLETLNEDVKNLRAQVNERYPKEVEKRQKRQAALSEALASGISTEMDLQRLQHQATALHNQITEIQERKVAQDKARQGDKAYLQLRQAQQMATVSARKKEELGAKQERLQEKKTALTAQLDKLNAEGGGSGAVFSEEEWRTKYESMKSKLPIYKKMKKELGDLEAEVFVLAHTEELLASQEGGLLEKVKRLEKQQGISGFTETAQHLEKVSEAKSQMDEEKGMTLIEISRTVEEINNAINQRKQQLAPQIKKLRSVRQDFAEFEAKYLEKKTAYDNVVATFEARTSALEGEVSGLKAEVSENETKYHMLHCQLHITDQNIKKVTSGPAAERLRDKYEAKVKEAEDSTKALRDRQREIKDTHSTGLSQIDIMNDMLRLLQLKLNLARGIAVDMSQYGGGGGAAGGANGGMAGQTYDTGSANVLQL
In the case of B1, the stoichiometry N [3] is reported as 1.

B2: 85-kD subunit of FLA10 kinesin-II (natural protein, UniProt A7LGV1 1-768, looked up)
chain: MASGGECVKVAVRCRPLNGKEKGDNRATIVEVDNKTGQVTLNNPKGDEPPKTFTFDNAFDWNVTQRDVYDVVARPIVNSVMDGYNGTIFAYGQTGTGKTHTMEGFPTPELQGIIPNCFDHVFETVNSSTGKQWMVRASYLEIYNEEVRDLLSKDPKNKLELKEHKDSGVYVKGLNAFVVKGVPELKNVLEVGKKNRSVGATLMNQDSSRSHSIFTITIETIEQTQAQPEGHIRVGKLNLVDLAGSERQSKTGATGDRLKEATKINLSLSALGNVISALVDGKSGHVPYRDSKLTRLLQDSLGGNTKTIMCANMGPADWNYDETLSTLRYANRAKNIKNKPKINEDPKDAMLREFQDEIARLKAALEAEGGALPEGFATGPGGEIIVEKVVQVPKALDASFLEQMRKDMEEQMKKELASQQAAALNDEQLQKVKEEAAAKAKAEAARLEEEKKKAEEEAARMQRKQQKIKAEMDKKSLDAEQIRAEKEALAKKLKAMESKILKGDQAGGLAEVTKKKEEELKRKEQELERRRKEEEEQRKKIQVMEEQQLAMEDKYKDKADEADQKTKKLKKLWKKFQEVNAEVEDMYKEFQREKEDLLESIRMLQDQMQLKDMVIEAFIPPEEVQKVMKRAHWDDEREVWVLERLSDIGKRETAQGASRRPVSASGQRRPTSDFAKLANAMGDMNPRFKSENILNLELDLPERTTYDYEGPGVDPRVQAAINAAFAEDGELIFVGSEQNVHLGDASAAAARPDSAKKRPASARKGTKK
For B2, the “stoichiometry N” value [4] was 1.
